19 molecules from patent publication US20170143843A1 (Genentech, published 2017) can be followed below.

Residue numbers refer to the chain shown, from its start. In names and notes the source's numbering stands.

The target in assay [1] is T1, human factor D (human, UniProt P00746 26-253). Nature of the assay: cell-based or functional assay.
Assay [2] addresses T1, human factor D. Nature of the assay: cell-based or functional assay. This is another data set of the same source.
Assay [3] has as its target T1, human factor D. Nature of the assay: SPR Biacore T200, Fab captured by anti-huFab, human fD injected, 25 C. As for the experimental part:
Antibody Fab fragments were immobilized on a Series S CM5 sensor chip using the anti-huFab capture kit (GE healthcare Cat. #28-9583-25) following a protocol described by the manufacturer. Kinetics of binding were calculated from sensorgrams recorded for injection of 60 μL aliquots of solutions of human factor D varied in concentration from 0.39 nM to 25 nM in 2-fold increments. The flow rate was 30 μL/minute, the running buffer was HBS-P+, the temperature of analysis was 25° C., real-time reference cell subtraction was employed, and dissociation following factor D injection was followed for 10 minutes. After subtraction of the sensorgram observed for injection of running buffer, data were analyzed according to a 1:1 model using BiaEval software v4.1 (GE Healthcare) to extract the kinetics and affinity constants.
A general note: SPR reads the build-up and loss of mass on a sensor chip optically.

In assay [4] the target is T1, human factor D. Nature of the assay: SPR total binding to fD over time; Fab 100 mg/mL in PBS, 37 C, 10 weeks (FIG. 2B).
For assay [5], the target named is T1, human factor D. Description: SPR total binding to fD over time; Fab 10 mg/mL in pH 5.5 buffer (FIG. 2A), one month.
For assay [6], the target named is T1, human factor D. Nature of the assay: SPR, captured Fab, fD injected.
For assay [7], the target named is T1, human factor D. Nature of the assay: cell-based or functional assay. This is another data set of the same source.

T1 sequence (P00746 26-253 limits assumed): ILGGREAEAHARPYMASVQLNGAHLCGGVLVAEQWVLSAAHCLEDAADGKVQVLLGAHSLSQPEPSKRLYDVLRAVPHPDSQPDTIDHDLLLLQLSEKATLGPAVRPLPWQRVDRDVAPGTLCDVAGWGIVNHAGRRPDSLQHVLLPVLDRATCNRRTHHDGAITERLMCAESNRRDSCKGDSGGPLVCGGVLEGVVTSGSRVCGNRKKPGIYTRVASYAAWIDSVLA

B1: AFD.v14.C+TP octamer (Cys-modified AFD.v14-8ARM (TP)-PEG-MAL conjugate) (other)
light: DIQVTQSPSSLSASVGDRVTITCITSTSIESDMNWYQQKPGKVPKLLISGGNTLRPGVPSRFSGSGSGTDFTLTISSLQPEDVATYYCLQSDSLPYTFGQGTKVEIKRTVAAPSVFIFPPSDEQLKSGTASVVCLLNNFYPREAKVQWKVDNALQSGNSQESVTEQDSKDSTYSLSSTLTLSKADYEKHKVYACEVTHQGLSSPVTKSFNRGEC
heavy: EVQLVQSGPELKKPGASVKVSCKASGYTFTNYGMNWVRQAPGQGLEWMGWINTYTGETTYAEDFKGRFVFSLDTSVSTAYLQISSLKAEDTAVYYCEREGGVSNWGQGTLVTVSSASTKGPSVFPLAPSSKSTSGGTAALGCLVKDYFPEPVTVSWNSGALTSGVHTFPAVLQSSGLYSLSSVVTVPSSSLGTQTYICNVNHKPSNTKVDKKVEPKSCDKTHTC
modifications: C-terminal Cys linked through maleimide to one arm of a 40,000 MW eight-armed PEG with tripentaerythritol (TP) core (8ARM (TP)-PEG-MAL, JenKem)
B1: in the assay with human factor D [1], the “Average IC50 fB Activation (pM), TR-FRET, 125 pM fD; AFD.v14 TP octamer (CEX pool)” value was determined as 77 pM and the “Average IC50 fB Activation (pM), TR-FRET, 125 pM fD; AFD.v14 TP octamer (S200 pool)” value amounted to 104 pM.

B2: AFD.v14 tetramer (AFD.v14.C conjugated to Sunbright PTE-400MA four-armed PEG) (other)
light: B1 light
heavy: B1 heavy
modifications: C-terminal Cys linked through maleimide to one arm of a 40,000 MW four-armed PEG (Sunbright PTE-400MA)
Turning to B2, the “Average IC50 fB Activation (pM), TR-FRET, 50 pM fD” value with human factor D [2] was 14.8 pM.

B3: AFD.v8 tetramer (AFD.v8.C conjugated to Sunbright PTE-400MA four-armed PEG) (other)
light: B1 light
heavy: B1 heavy with S103N
modifications: C-terminal Cys linked through maleimide to one arm of a 40,000 MW four-armed PEG (Sunbright PTE-400MA)
In the case of B3, the “Average IC50 fB Activation (pM), TR-FRET, 50 pM fD” value with human factor D [2] turned out to be 11 pM.

B4: AFD.v1 (VL-D28S) (Fab, V domains shown)
VH: EVQLVQSGPELKKPGASVKVSCKASGYTFTNYGMNWVRQAPGQGLEWMGWINTYTGETTYADDFKGRFVFSLDTSVSTAYLQISSLKAEDTAVYYCEREGGVNNWGQGTLVTVSS
VL: DIQVTQSPSSLSASVGDRVTITCITSTSIDDDMNWYQQKPGKVPKLLISGGNTLRPGVPSRFSGSGSGTDFTLTISSLQPEDVATYYCLQSDSLPYTFGQGTKVEIKR
notes: Fab variant of aFD.WT
Take B4: the dissociation constant (Kd) (as a rule, the concentration at which binding is half-saturated) with human factor D [3] is at most 0.01 nM.

B5: AFD.v14.C (Cys-modified AFD.v14 variant, Fab-C) (Fab, V domains shown)
VH: B4 VH with D62E, N103S
VL: B4 VL with D30E, D31S
Consider B5, for which the “Average IC50 fB Activation (pM), TR-FRET, 125 pM fD” value with human factor D [1] was 72 pM.

B6: AFD.v5 (VL-D28S:D31S:D32S) (Fab, V domains shown)
VH: B4 VH
VL: B4 VL with D31S, D32S
notes: Fab variant of aFD.WT
For B6, the Kd with human factor D [3] was determined as 0.28 nM.

B7: AFD.v12 (SIESD.N103D; VL-D28S:D30E:D31S VH-D62E VH-N103D) (Fab, V domains shown)
VH: B4 VH with D62E, N103D
VL: B4 VL with D30E, D31S
notes: Fab variant of aFD.WT
As to B7, binding in the assay with human factor D [3] was put at a Kd of 0.023 nM.

B8: AFD.v13 (SIESD.N103Q; VL-D28S:D30E:D31S VH-D62E VH-N103Q) (Fab, V domains shown)
VH: B4 VH with D62E, N103Q
VL: B4 VL with D30E, D31S
notes: Fab variant of aFD.WT
Regarding B8, binding with human factor D [3] was put at a Kd of 0.06 nM.

B9: AFD.v11 (VL-D28S:D30E:D31S VH-D62E VH-N52S) (Fab, V domains shown)
VH: B4 VH with N52S, D62E
VL: B4 VL with D30E, D31S
notes: Fab variant of aFD.WT; also called SIESD + VH-N52S
Molecule B9 showed an equilibrium dissociation constant (Kd) with human factor D [3] of 0.07 nM.

B10: AFD.v6 (TM; VL-D30E:D31S VH-D62E) (Fab, V domains shown)
VH: B4 VH with D62E
VL: B4 VL with S28D, D30E, D31S
notes: Fab variant of aFD.WT; also called TM (AFD.v6)
With B10, in the assay with human factor D [3], the Kd was at most 0.01 nM. Moreover, the loss in binding with human factor D [4] was about 20%; with human factor D [5], about 40%.

B11: AFD.v3 (VL-D31S) (Fab, V domains shown)
VH: B4 VH
VL: B4 VL with S28D, D31S
notes: Fab variant of aFD.WT
B11: in the assay with human factor D [3], the Kd was at most 0.01 nM.

B12: AFD.v10 (SIESD.D92E; VL-D28S:D30E:D31S VH-D62E VL-D92E) (Fab, V domains shown)
VH: B4 VH with D62E
VL: B4 VL with D30E, D31S, D92E
notes: Fab variant of aFD.WT
Take B12: binding with human factor D [3] was put at a Kd of 0.07 nM.

B13: AFD.v15 (SIESD.N103S.D92E; VL-D28S:D30E:D31S:D92E VH-D62E:N103S) (Fab, V domains shown)
VH: B4 VH with D62E, N103S
VL: B4 VL with D30E, D31S, D92E
notes: Fab variant of aFD.WT
For B13, the “fold decrease in affinity against SIESD.N103S (AFD.v14)” value with human factor D [6] was 4 fold. Further, the affinity with human factor D [3], expressed as Kd, was 0.102 nM.

B14: AFD.v9 (VL-D28S:D30E:D31S VH-D62E VL-N34S) (Fab, V domains shown)
VH: B4 VH with D62E
VL: B4 VL with D30E, D31S, N34S
notes: Fab variant of aFD.WT; also called SIESD + VL-N34S
Regarding B14, the Kd with human factor D [3] came out at 0.03 nM.

B15: AFD.v2 (VL-D30E) (Fab, V domains shown)
VH: B4 VH
VL: B4 VL with S28D, D30E
notes: Fab variant of aFD.WT; also called D30E (AFD.v2)
On to B15, for which the Kd with human factor D [3] was at most 0.01 nM. Moreover, the loss in binding was about 20% with human factor D [4] and about 40% with human factor D [5].

B16: AFD.v8 (SIESD; VL-D28S:D30E:D31S VH-D62E) (Fab, V domains shown)
VH: B4 VH with D62E
VL: B4 VL with D30E, D31S
notes: Fab; also called SIESD (AFD.v8)
With B16, the “IC50 (nM) AP Hemolysis (rabbit erythrocytes, C1q-depleted human serum)” value (shortened to “IC50 (nM) AP Hemolysis”) in the assay with human factor D [7] came to 4.2 nM. The “Average IC50 fB Activation (pM), TR-FRET, 50 pM fD” value with human factor D [2] turned out to be 27.6 pM. Moreover, the Kd in the assay with human factor D [3] amounted to 0.0167 nM.

B17: AFD.v14 (SIESD.N103S; VL-D28S:D30E:D31S VH-D62E VH-N103S) (Fab, V domains shown)
VH: B4 VH with D62E, N103S
VL: B4 VL with D30E, D31S
notes: Fab; also called SIESD.N103S (AFD.v14); AFD.14
With B17, the “IC50 (nM) AP Hemolysis” value with human factor D [7] amounted to 4.1 nM. Moreover, the “Average IC50 fB Activation (pM), TR-FRET, 50 pM fD” value in the assay with human factor D [2] worked out at 34 pM. Besides, the “Average IC50 fB Activation (pM), TR-FRET, 125 pM fD” value with human factor D [1] was 87 pM. The dissociation constant (Kd) with human factor D [3] was found to be 0.0256 nM. In the assay with human factor D [4], the loss in binding stood at 10%.

B18: AFD.v4 (VL-D32S) (Fab, V domains shown)
VH: B4 VH
VL: B4 VL with S28D, D32S
notes: Fab variant of aFD.WT
In turn, B18 had a Kd with human factor D [3] of 0.026 nM.

B19: AFD.v7 (TM.D92E; VL-D30E:D31S VH-D62E VL-D92E) (Fab, V domains shown)
VH: B4 VH with D62E
VL: B4 VL with S28D, D30E, D31S, D92E
notes: Fab variant of aFD.WT; also called TM.D92E (AFD.v7)
For the molecule B19, the “IC50 (nM) AP Hemolysis” value in the assay with human factor D [7] was found to be 3.8 nM. In the assay with human factor D [3], this molecule returned a Kd of at most 0.01 nM.
